In this assay the target is human LY6H expressed on 293T cells (plasmid BBP491, M1-P140 plus Myc-DDK) (human) (UniProt O94772). Put plainly: on-cell affinity by flow cytometry: unconjugated 12G7 (0.05-100 nM) competes with 1 nM PE-conjugated 12G7 on 293T cells expressing human LY6H; table row 293T-huLY6H. Background: Flow cytometry measures light scatter and fluorescence of single cells or particles in a stream.

What is called Kd is the constant that tells how readily two partners part at equilibrium.

B1: 12G7 (antibody, V domains shown)
VH: QVQLQQWGAGLLKPSETLSLTCAVYGGSFSGYYWSWIRQPPGKGLEWIGEINHSGSTYYNPSLKSRVTMSVDTSKNQFSLKLSSVTAADTAVYYCAKRWELGAFDIWGQGTMVTVSS
VL: DIQMTQSPSSLSASVGDRVTITCRASQGISNYLAWYQQKPGKVPKLLIYAASTLQSGVPSRFSGSGSGTDFTLTISSLQPEDVATYYCQKYNSAPRTFGQGTKLEIK
Consider B1, for which the Kd came out at 9.9 nM.

Source of the values: US20250319180A1.
